Biological target: T1, γ-secretase (Homo sapiens, UniProt P49768)
T1 construct: made in house; host or cells: suspension HEK cells (Freestyle 293), transiently transfected
Test: In vitro γ-secretase assay (purified γ-secretase in proteoliposomes cleaving recombinant C100-FLAG substrate)
Format: biochemical
Conditions: C100-FLAG 500 nM, Figure 1B, 1F
Method: Purified γ-secretase was incorporated into vesicles by first dissolving total brain lipid extract (1.25 mM final) in 50 mM HEPES pH 7.0, 150 mM NaCl, 0.25% CHAPSO. γ-Secretase (5–30 nM final concentration) was then added to the solution and detergent removed by mixing SM-2 biobeads (62 mg/mL) (Bio-Rad) with the lipid/detergent/enzyme solution for two hrs at 4°C. Biobeads were removed from the newly formed proteoliposomes and reactions were initiated with the addition of purified recombinant substrate C100-FLAG substrate. Reactions were quenched with SDS loading dye for western blot or centrifuged for ELISA or mass spectrometry on Aβ or AICD fragments, respectively.
For inhibition studies, tripeptide fragments or inhibitors were dissolved in DMSO prior to being diluted into the reaction buffer. The concentration of C100-FLAG used in all in vitro assays was 500 nM unless otherwise stated.
Tripeptide IC50 inhibition was fit to: vi/vo=1/(1+[I]/IC50)
Tripeptide inhibition was globally fit to the following noncompetitive equation: v= Vmax[S]/[S](1+[I]/Kii)+Km(1+[I]/Ki)
Inhibitor cross-competition was globally fit to: 1/vij=1/v0(1+[I]/Ki+[J]/Kj+[I][J]/αKiKj)

Substance | inhibition of γ-secretase activity (relative potency in words)
AFA: synthetic tripeptide predicted to clash with the S' pocket binding site | very weak inhibitor
FAF: synthetic tripeptide of the predicted optimal binding sequence for the large-small-large S1'-S2'-S3' pockets | more potent inhibitor of γ-secretase activity than any of the naturally occurring APP-derived tripeptides
